According to patent US9234036B2, “Modulation of activity of proneurotrophins” (H. Lundbeck A/S, priority 2006, dated 2016):

Legend:
pro-dom-BDNF = biological target: T1, pro-dom-BDNF (Homo sapiens, UniProt P23560); test: SPR direct binding of sortilin peptides to immobilized pro-dom-BDNF; settings: for direct interaction with immobilized pro-dom-BDNF: concentration series of peptide, FIG. 18; for affinity towards pro-dom-BDNF compared with pro-dom-NGF: single peptide concentration, identical amounts of immobilized pro-dom-NGF and -BDNF
T1 construct: pro-dom-BDNF (residues Ala^1-Arg^110); made in house; host or cells: E. coli BL21/DE3
T1 sequence (P23560 19-128 limits assumed): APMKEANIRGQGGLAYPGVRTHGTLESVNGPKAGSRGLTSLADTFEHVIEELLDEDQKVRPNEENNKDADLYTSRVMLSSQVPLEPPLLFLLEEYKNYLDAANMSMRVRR
From the text: (§1) FIG. 18: Surface plasmon resonance binding analysis of sortilin peptides to pro-dom-NGF and -BDNF. The direct interaction between sortilin peptides (as identified by SPOT analysis) and the pro-domains of NGF and BDNF was verified by surface plasmon resonance analysis using immobilized pro-dom-NGF and -BDNF. […] The numbering in this figure refers to the mature part of Sortilin.
(§2) A biosensor chip from Biacore (CM5, cat. no. BR-1000-14) was activated using the NHS/EDC method as described by supplier followed by coating with Sortilin to a protein densitiy of 79 fmol/mm2, and used for affinity measurements of the recombinant pro-domains of NGF and BDNF. Regeneration of the flow cell after each cycle of ligand binding experiment was performed by two 10 uL pulses of regeneration buffer (10 mM glycine-HCl, pH 4.0, 500 mM NaCl, 20 mM EDTA, and 0.005% Tween-20) and a single injection of 0.001% SDS. Fitting of sensorgrams for affinity estimations was performed using the Biaevaluation version 3.1. Following similar protocols, immobilization of pro-dom-NGF or pro-dom-BDNF was also performed on a CM5 biosensor chip using the NHS/EDC coupling kit according to manufactures instructions (Biacore, Sweden), giving similar surface densitites of immobilized protein (˜300 fmol/mm2). […] This chip was subsequent used to examine the binding of 390 nM wild-type Sortilin domain in CaHBS buffer at a flow of 5 uL/min, which in the absence of any competing peptide gave a ˜300 RU signal.

pro-dom-NGF = biological target: T2, pro-dom-NGF (Homo sapiens, UniProt P01138, A35V); test: SPR direct binding of sortilin peptides to immobilized pro-dom-NGF; settings: concentration series of peptide, FIG. 18
T2 construct: pro-dom-NGF (residues Glu^1-Arg^102); made in house; host or cells: E. coli BL21/DE3
T2 sequence (P01138 19-121 A35V): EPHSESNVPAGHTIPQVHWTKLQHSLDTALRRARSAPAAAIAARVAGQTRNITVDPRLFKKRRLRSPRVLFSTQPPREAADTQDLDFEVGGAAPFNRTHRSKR
From the text: as §1
A biosensor chip from Biacore (CM5, cat. no. BR-1000-14) was activated using the NHS/EDC method as described by supplier followed by coating with Sortilin to a protein densitiy of 79 fmol/mm2, and used for affinity measurements of the recombinant pro-domains of NGF and BDNF. Regeneration of the flow cell after each cycle of ligand binding experiment was performed by two 10 uL pulses of regeneration buffer (10 mM glycine-HCl, pH 4.0, 500 mM NaCl, 20 mM EDTA, and 0.005% Tween-20) and a single injection of 0.001% SDS. Fitting of sensorgrams for affinity estimations was performed using the Biaevaluation version 3.1. Following similar protocols, immobilization of pro-dom-NGF or pro-dom-BDNF was also performed on a CM5 biosensor chip using the NHS/EDC coupling kit according to manufactures instructions (Biacore, Sweden), giving similar surface densitites of immobilized protein (˜300 fmol/mm2). […]

[1] = biological target: T3, Sortilin binding to immobilized pro-dom-BDNF (Homo sapiens, UniProt P23560); test: SPR competition: Sortilin binding to immobilized pro-dom-BDNF in presence of sortilin peptide
T3 construct: pro-dom-BDNF (residues Ala^1-Arg^110); made in house; host or cells: pro-dom-BDNF: E. coli BL21/DE3; Sortilin: EBNA293 cells
T3 sequence (P23560 19-128 limits assumed): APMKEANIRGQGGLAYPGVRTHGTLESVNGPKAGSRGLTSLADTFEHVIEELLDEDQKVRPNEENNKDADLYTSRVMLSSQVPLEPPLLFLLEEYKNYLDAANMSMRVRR
Experimental: FIG. 19: Surface plasmon resonance analysis of competition studies by the sortilin peptides.
as §2

[2] = biological target: T4, p75-IgG-Fc chimeric protein (Homo sapiens, UniProt P08138); test: Surface plasmon resonance (BIAcore) binding to immobilized p75-IgG-Fc; settings: 91.5 fmol/mm^2 immobilized p75-IgG-Fc; calculated from on and off rates
T4 construct: purchased R&D systems (Oxon, UK)
T4 sequence (P08138 with tags, fused parts or gaps limits assumed): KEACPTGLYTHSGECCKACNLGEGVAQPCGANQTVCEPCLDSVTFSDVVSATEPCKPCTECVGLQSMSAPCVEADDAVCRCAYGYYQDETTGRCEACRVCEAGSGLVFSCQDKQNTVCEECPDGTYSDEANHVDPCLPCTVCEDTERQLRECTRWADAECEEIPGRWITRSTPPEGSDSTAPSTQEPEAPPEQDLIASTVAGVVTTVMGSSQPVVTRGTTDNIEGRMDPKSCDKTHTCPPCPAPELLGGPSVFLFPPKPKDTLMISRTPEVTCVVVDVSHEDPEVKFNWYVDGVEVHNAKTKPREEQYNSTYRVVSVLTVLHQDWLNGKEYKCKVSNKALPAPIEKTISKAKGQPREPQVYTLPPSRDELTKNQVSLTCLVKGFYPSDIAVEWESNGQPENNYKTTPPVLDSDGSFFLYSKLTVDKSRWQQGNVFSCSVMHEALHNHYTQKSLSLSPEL
Experimental: (§3) FIG. 2: Characterization of NGF binding to p75, TrkA, and Sortilin as measured by surface plasmon resonance analysis (BIAcore). Binding of 50-500 nM NGF was measured to 91.5 fmol/mm^2 immobilized p75-IgG-Fc chimeric protein (upper panel), to 66 fmol/mm^2 immobilized TrkA-IgG-Fc (middle panel), and to 51 fmol/mm^2 purified Sortilin extracellular domain (lower panel). The on and off rates—100 to 600 seconds and 600 to 1000 seconds, respectively—were recorded and the Kd values for NGF binding were calculated to ˜1 nM for p75, ˜2 nM for TrkA, and ˜8 nM for Sortilin. […]
(§4) FIG. 3: Characterization of proNGF binding to p75, TrkA, and Sortilin as measured by surface plasmon resonance analysis (Biacore). Binding of 25-500 nM proNGF was measured to 91.5 fmol/mm^2 immobilized p75-IgG-Fc chimeric protein (upper panel), to 66 fmol/mm^2 immobilized TrkA-IgG-Fc (middle panel), and to 51 fmol/mm^2 purified Sortilin extracellular domain (lower panel). […]
(§5) FIG. 4: Characterization of binding of the proNGF propeptide to p75, TrkA, and Sortilin as measured by surface plasmon resonance analysis (Biacore). Binding of 25-500 nM propeptide was measured to 91.5 fmol/mm^2 immobilized p75-IgG-Fc chimeric protein (upper panel), to 66 fmol/mm^2 immobilized TrkA-IgG-Fc (middle panel), and to 51 fmol/mm^2 purified Sortilin extracellular domain (lower panel). […]

TrkA-IgG-Fc = biological target: T5, TrkA-IgG-Fc (Homo sapiens, UniProt P04629); test: Surface plasmon resonance (BIAcore) binding to immobilized TrkA-IgG-Fc; settings: 66 fmol/mm^2 immobilized TrkA-IgG-Fc; calculated from on and off rates
T5 construct: purchased R&D systems (Oxon, UK)
T5 sequence (P04629 34-407 isoform P04629-2 limits assumed): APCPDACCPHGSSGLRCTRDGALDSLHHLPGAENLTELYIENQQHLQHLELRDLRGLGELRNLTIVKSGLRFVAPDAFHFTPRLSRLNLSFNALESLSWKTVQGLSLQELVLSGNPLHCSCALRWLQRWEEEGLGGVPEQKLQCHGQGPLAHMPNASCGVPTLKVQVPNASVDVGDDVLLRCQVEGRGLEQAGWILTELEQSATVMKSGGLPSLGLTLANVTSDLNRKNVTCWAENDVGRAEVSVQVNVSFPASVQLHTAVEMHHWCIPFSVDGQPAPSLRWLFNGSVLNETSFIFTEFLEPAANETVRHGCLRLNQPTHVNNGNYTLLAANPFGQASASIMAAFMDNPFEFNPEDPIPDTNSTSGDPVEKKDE
Experimental: as §3, §4, §5

[3] = biological target: T6, Sortilin extracellular domain (Homo sapiens, UniProt Q99523); test: Surface plasmon resonance (BIAcore) binding to immobilized purified Sortilin extracellular domain; settings: 51 fmol/mm^2 purified Sortilin extracellular domain; calculated from on and off rates
T6 construct: 51 fmol/mm^2 purified Sortilin extracellular domain; made in house; host or cells: stably transfected CHO cells
T6 sequence (Q99523 78-755 limits assumed): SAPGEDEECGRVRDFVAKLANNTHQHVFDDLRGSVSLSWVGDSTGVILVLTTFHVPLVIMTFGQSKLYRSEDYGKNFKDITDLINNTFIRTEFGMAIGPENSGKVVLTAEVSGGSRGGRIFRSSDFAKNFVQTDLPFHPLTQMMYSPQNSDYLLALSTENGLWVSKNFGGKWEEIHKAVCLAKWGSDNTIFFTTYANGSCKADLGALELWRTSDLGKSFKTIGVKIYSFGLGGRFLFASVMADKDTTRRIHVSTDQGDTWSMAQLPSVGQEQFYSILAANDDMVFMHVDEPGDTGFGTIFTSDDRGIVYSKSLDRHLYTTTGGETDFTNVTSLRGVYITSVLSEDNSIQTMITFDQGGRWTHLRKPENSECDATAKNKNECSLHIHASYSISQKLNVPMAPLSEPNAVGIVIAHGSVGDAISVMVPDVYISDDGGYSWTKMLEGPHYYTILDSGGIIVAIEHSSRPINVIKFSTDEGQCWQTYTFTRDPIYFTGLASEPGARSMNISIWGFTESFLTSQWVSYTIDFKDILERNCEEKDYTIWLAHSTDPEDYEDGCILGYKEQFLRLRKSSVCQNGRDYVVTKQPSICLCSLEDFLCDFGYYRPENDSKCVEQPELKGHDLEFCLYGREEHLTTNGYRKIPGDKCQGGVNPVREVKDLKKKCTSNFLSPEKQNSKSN
Experimental: as §3, §4, §5

[4] = biological target: T7, proNGF binding to immobilized Sortilin (Homo sapiens, UniProt Q99523); test: Inhibition of proNGF binding to immobilized Sortilin (Biacore); settings: 5 μM inhibitor prebound, then coinjection; 51 fmol/mm^2 Sortilin (FIG. 6)
T7 construct: 51 fmol/mm^2 purified Sortilin extracellular domain; made in house; host or cells: Sortilin: stably transfected CHO cells; proNGF: E. coli
T7 sequence (Q99523 78-755 limits assumed): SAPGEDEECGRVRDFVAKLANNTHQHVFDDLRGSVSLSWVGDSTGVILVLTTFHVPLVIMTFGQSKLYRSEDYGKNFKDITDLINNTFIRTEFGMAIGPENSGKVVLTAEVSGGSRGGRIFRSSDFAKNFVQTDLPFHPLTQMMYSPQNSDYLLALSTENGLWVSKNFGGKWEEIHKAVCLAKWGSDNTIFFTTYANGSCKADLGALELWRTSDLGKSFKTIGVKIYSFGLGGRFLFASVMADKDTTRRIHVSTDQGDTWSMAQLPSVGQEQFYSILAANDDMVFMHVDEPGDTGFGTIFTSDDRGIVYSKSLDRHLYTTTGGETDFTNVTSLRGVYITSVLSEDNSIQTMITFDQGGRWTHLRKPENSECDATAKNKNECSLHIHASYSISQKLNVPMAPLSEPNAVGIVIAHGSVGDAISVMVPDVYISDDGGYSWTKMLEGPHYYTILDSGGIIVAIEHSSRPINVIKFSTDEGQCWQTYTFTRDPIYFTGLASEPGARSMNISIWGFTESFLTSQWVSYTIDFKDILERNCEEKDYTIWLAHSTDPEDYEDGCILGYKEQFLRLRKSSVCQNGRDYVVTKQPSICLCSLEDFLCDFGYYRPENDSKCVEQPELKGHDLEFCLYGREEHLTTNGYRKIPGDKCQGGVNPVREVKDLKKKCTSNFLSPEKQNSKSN

In the case of RIFRSSDFAKNF (listed as Homo Sapiens), the “direct interaction with immobilized pro-dom-BDNF” value (pro-dom-BDNF) is reported as “direct binding”, the “affinity towards pro-dom-BDNF compared with pro-dom-NGF” value (pro-dom-BDNF) is reported as “higher affinity of the peptides towards BDNF than NGF” and the “direct interaction with immobilized pro-dom-NGF” value (pro-dom-NGF) is reported as “direct binding”.

For “RSSDFAKNFVQTDLPF (listed as Homo Sapiens)”, the “direct interaction with immobilized pro-dom-BDNF” value (pro-dom-BDNF) was “direct binding”, the “affinity towards pro-dom-BDNF compared with pro-dom-NGF” value (pro-dom-BDNF) was “higher affinity of the peptides towards BDNF than NGF” and the “inhibition of Sortilin binding to immobilized pro-dom-BDNF” value ([1]; 300 uM peptide, 390 nM wild-type Sortilin domain, CaHBS buffer) was about 66%. The “competition of sortilin binding to immobilized pro-dom-BDNF” value ([1]; FIG. 19, + peptide) was “significantly inhibited” and the “direct interaction with immobilized pro-dom-NGF” value (pro-dom-NGF) was “direct binding”.

With “proNGF: Human recombinant proNGF produced and purified in E. coli” the Kd [2] was about 12 nM.

B1: proNGF propeptide: human NGF-propeptide expressed in E. coli (protein)
chain: EPHSESNVPAGHTIPQVHWTKLQHSLDTALRRARSAPAAAIAARVAGQTRNITVDPRLFKKRRLRSPRVLFSTQPPREAADTQDLDFEVGGAAPFNRTHRSKR
For B1, the “Kd for binding to TrkA” value (TrkA-IgG-Fc) was “no detectable binding”, the Kd [3] was about 8 nM and the “inhibition of binding of 200 nM proNGF to immobilized Sortilin” value [4] was about 85%. For the same molecule, the “Kd for binding to p75” value [2] was “no detectable binding”.
